# Reference: patent US20240228627A1, “GALECTIN-1-SPECIFIC MONOVALENT ANTIBODIES AND USES THEREOF” (INSTITUT NATIONAL DE LA RECHERCHE SCIENTIFIQUE, priority 2021, published 2024)
# “Also recorded” adds a separate entry of the source.
# B1: G1N1: galectin-1-specific single-domain camelid VHH nanobody, SEQ ID NO:8; lead clone from phage display of a humanized synthetic library (protein)
# VHH: MAEVQLQASGGGFVQPGGSLRLSCAASGSTFSEDAMGWFRQAPGKEREFVSAISGFANPHSYYADSVKGRFTISRDNSKNTVYLQMNSLRAEDTATYYCAASHKKTRAPAATFETYWGQGTQVTVSS
# modifications: full sequence of G1N1 VHH
# Key:
# [1] = target: T1, GAL-1-Biotin (biotinylated human GAL-1) (Homo sapiens, UniProt P09382); assay: non-adsorbed phage ELISA of VHH clones on GAL-1-Biotin; type: binding; conditions: HRP-conjugated anti-M13 antibody, TMB substrate; 282 clones tested
# T1 construct: made in house; host or cells: E. coli BL21 (DE3), pET-22b(+)
# T1 sequence (P09382 whole entry): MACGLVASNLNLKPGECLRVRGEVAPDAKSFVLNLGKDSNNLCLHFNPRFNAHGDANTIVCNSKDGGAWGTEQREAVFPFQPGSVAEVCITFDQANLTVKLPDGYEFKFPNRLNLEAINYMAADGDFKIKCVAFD
# Method: Generation and production of single chain camelid antibodies. Galectin-specific single chain (VHH) camelid antibodies were obtained following in vitro screening of a non-immune humanized synthetic single domain antibodies (hsd2Ab) library that contains more than 3×10^9 clones expressed at the surface of M13 phage [Moutel et al., 2016]. The panning was carried out against immobilized recombinant human galectin-1 devoid of carbohydrate in its glycan binding site (GBS). Prior to the phage display selection, galectin-1-biotin and GST-Biotin were bound to streptavidin magnetic beads (Dynabeads® M-280 Streptavidin, Life Technologies) with a 50 nM final concentration of biotinylated protein for the first round and 10 nM final concentration of biotinylated protein for the second and third rounds. […] Following three-rounds of phage display, clones were picked randomly and analyzed by non-adsorbed phage ELISA using HRP-conjugated anti-M13 antibody (GE Healthcare) and a colorimetric substrate (TMB, tetramethylbenzidine, Thermo Fischer).
# Following an initial pre-screen round of phage display carried out with GST-biotin to deplete the library from unspecific binders, unbound VHHs were incubated with GAL-1-Biotin beads. […] A total of 282 VHHs were then picked and analyzed by ELISA for galectin-1 binders.
# mouse GAL-7 = target: T2, mouse GAL-7 (Mus musculus, UniProt O54974); assay: microscale thermophoresis (MST) binding, mouse GAL-7; conditions: at 10 μM; Red-NHS labeled G1N1 (2 nM)
# T2 sequence (O54974 1-136): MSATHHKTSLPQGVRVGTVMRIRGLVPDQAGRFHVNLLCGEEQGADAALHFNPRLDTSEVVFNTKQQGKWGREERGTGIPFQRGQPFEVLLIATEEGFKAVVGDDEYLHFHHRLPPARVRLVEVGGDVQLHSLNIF
# Method: (§1) FIGS. 9A-C show the binding affinities evaluated by microscale thermophoresis (MST) using various ligands over a range of 16 ligand concentrations allowing to obtain a full concentration-response curve. FIG. 9A: Red-NHS labeled human GAL-1 (5 nM) incubated with G1N1 or alpha-lactose (a-lactose). FIG. 9B: Red-NHS labeled G1N1 (2 nM) was used to study the affinity of G1N1 for mouse and human galectin-1. […] All experiments were performed in 20 mM Tris-HCl 150 mM NaCl and 0.1% F127. Binding affinities (Kd values) were determined from the fitted curves (three parameter dose-response curve) obtained from data of at least 3 independent experiments. For each value, 95% confidence intervals (Cl) are indicated.
# (§2) Microscale thermophoresis (MST. Galectins were labeled using the RED-NHS labeling kit (Nanotemper Technologies, Germany) in accordance with the manufacturer's protocol. Unreacted dye was removed using the provided purification columns. Binding affinity assays were performed in 20 mM Tris-HCl, 150 mM NaCl and 0.1% F127. Samples were loaded into standard Monolith NT.115 capillaries and microscale thermophoresis was measured using a Monolith NT.115 Pico instrument (Nanotemper Technologies, Germany) at ambient temperature. Binding affinities (Kd values) were determined from the fitted curves (three parameter dose-response curve).
# [2] = target: T3, recombinant human GAL-1 (rhGAL-1) (Homo sapiens, UniProt P09382); assay: inhibition of galectin-1-induced apoptosis of Jurkat T cells (annexin V/propidium iodide flow cytometry); type: cell-based; conditions: rhGAL-1 2.25 μM, 4 h at 37° C., increasing concentrations of nanobody
# T3 construct: made in house; host or cells: E. coli BL21 (DE3), pET-22b(+)
# T3 sequence (P09382 whole entry): as the sequence (P09382 whole entry) above
# Method: Briefly, Jurkat T cells were incubated with recombinant human GAL-1 (rhGAL-1; 2.25 μM) for 4h at 37° C. in presence of increasing concentrations of G1N1 and G1N2. Apoptosis was measured by flow cytometry using conventional annexin V/propidium iodide staining. Results represent data recorded on 5000 cells. Errors bars represent standard deviation.
# Jurkat T cells were incubated with increasing concentrations of G1N1 pre-incubated with rhGAL-1 (2.25 μM) for 4 h at 37° C., after which apoptosis was measured by flow cytometry using Annexin V/propidium iodide staining. 5000 events were recorded. Errors bars represent standard deviation.
# Apoptosis of human T cells. In vitro apoptosis assays were carried out using the standard in vitro human Jurkat T cell model system, fluorescein isothiocyanate (FITC)-labeled annexin V (Biolegend, San Diego, CA, USA) and propidium iodide (PI). Briefly, recombinant galectin-1 was pre-incubated for 1 h at 4° C. in serum free RPMI 1640 medium before addition to Jurkat cells. The mixture was incubated at 37° C. for 4 h. Cells were then washed once in PBS and once in binding buffer (0.01 M HEPES, 0.14 M NaCl, 2.5 mM CaCl2, pH 7.4). For staining, cells were incubated for 15 min with FITC-labeled annexin V in the dark at room temperature. The PI (0.25 μg/mL) stain was added to cells just before analysis by flow cytometry.
# mouse galectin-1 = target: T4, mouse galectin-1 (Mus musculus, UniProt P16045); assay: microscale thermophoresis (MST) binding affinity, mouse galectin-1; conditions: Red-NHS labeled G1N1 (2 nM); 20 mM Tris-HCl 150 mM NaCl 0.1% F127
# T4 construct: made in house; host or cells: E. coli BL21 (DE3), pET-22b(+)
# T4 sequence (P16045 whole entry): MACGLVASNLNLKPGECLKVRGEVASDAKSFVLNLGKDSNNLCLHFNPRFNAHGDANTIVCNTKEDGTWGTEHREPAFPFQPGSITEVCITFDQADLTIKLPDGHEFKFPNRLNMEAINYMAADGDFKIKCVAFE
# Method: as §1, §2
# human GAL-7 [3] = target: T5, human GAL-7 (Homo sapiens, UniProt P47929); assay: inhibition of GAL-7-induced apoptosis of Jurkat T cells (annexin V/propidium iodide flow cytometry); type: cell-based; conditions: human GAL-7 10 μM, 4 h at 37° C.
# T5 construct: made in house; host or cells: E. coli BL21 (DE3), pET-22b(+)
# T5 sequence (P47929 whole entry): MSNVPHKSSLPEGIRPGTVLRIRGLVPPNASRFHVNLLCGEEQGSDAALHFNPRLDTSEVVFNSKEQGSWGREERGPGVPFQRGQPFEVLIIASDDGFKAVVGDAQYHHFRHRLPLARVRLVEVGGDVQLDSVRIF
# human GAL-13 = target: T6, human GAL-13 (Homo sapiens, UniProt Q9UHV8); assay: microscale thermophoresis (MST) binding, human GAL-13; conditions: at 10 μM; Red-NHS labeled G1N1 (2 nM)
# T6 construct: made in house; host or cells: E. coli BL21 (DE3), pET-22b(+)
# T6 sequence (Q9UHV8 1-139): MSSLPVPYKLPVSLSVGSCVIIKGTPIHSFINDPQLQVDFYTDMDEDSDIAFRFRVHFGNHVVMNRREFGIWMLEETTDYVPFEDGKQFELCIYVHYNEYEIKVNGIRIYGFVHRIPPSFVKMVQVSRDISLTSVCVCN
# Method: as §1, §2
# human GAL-7 [4] = target: T5, human GAL-7; assay: microscale thermophoresis (MST) binding, human GAL-7; conditions: at 10 μM; Red-NHS labeled G1N1 (2 nM)
# Method: as §1, §2
# human galectin-1 = target: T7, human galectin-1 (Homo sapiens, UniProt P09382); assay: microscale thermophoresis (MST) binding affinity, human galectin-1
# T7 construct: made in house; host or cells: E. coli BL21 (DE3), pET-22b(+)
# T7 sequence (P09382 whole entry): as the sequence (P09382 whole entry) above
# Method: as §1, §2
# [5] = test system: human galectin-1 versus galectin-2, -7, -13 and -16; assay: ELISA binding of G1N1 to immobilized recombinant human galectins; conditions: human galectins immobilized at 1 and 5 μM; increasing concentrations of G1N1
# Method: Briefly, human galectins were immobilized at 1 and 5 μM for 16 h at 4° C. After a blocking step with PBS containing 10% (v/v) BSA (blocking buffer), increasing concentrations of G1N1 were added to each well and incubated for 1 h at room T° C. […] The colorimetric assay was carried out with 3,3′,5,5′-tetramethylbenzidine (Sigma-Aldrich, ON, Canada) according to the manufacturers recommendations.
# ELISA assays. Recombinant human galectins were immobilized in 96-well plates at the indicated concentrations for 16 h at 4° C. After a blocking step with PBS containing 10% (v/v) bovine serum albumin (BSA) (blocking buffer), increasing concentrations of G1N1 were added to each well and incubated for 1 h at room temperature. […] The colorimetric assay was carried out with TMB (Sigma-Aldrich, MO, USA) according to the manufacturer's recommendations.
# human GAL-8 = target: T8, human GAL-8 (Homo sapiens, UniProt O00214); assay: microscale thermophoresis (MST) binding, human GAL-8; conditions: at 10 μM; Red-NHS labeled G1N1 (2 nM)
# T8 sequence (O00214 1-317): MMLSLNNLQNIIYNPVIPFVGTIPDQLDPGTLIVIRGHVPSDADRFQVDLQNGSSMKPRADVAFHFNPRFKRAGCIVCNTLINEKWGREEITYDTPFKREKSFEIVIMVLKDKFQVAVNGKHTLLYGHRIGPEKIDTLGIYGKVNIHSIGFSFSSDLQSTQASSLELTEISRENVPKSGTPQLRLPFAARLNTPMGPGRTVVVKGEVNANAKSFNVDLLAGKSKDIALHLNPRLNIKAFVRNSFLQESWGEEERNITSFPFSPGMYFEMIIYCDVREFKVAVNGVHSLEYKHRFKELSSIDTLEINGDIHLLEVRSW
# Method: as §1, §2
molecule,measurement,setting,value
B1,binding in phage ELISA in the presence of GAL-1-Biotin,[1],strong binding; also recorded: strong positive hit
same,binding to mouse GAL-7 by MST,mouse GAL-7,does not bind; also recorded: no binding was detected
same,inhibition of galectin-1-induced apoptosis of Jurkat T cells,[2],strong and significant inhibition
same,binding affinity (Kd) for mouse recombinant galectin-1 by MST,mouse galectin-1,in the nanomolar range
same,inhibition of GAL-7-induced apoptosis of Jurkat T cells,human GAL-7 [3],did not inhibit; also recorded: No significant inhibition
same,binding to human GAL-13 by MST,human GAL-13,does not bind; also recorded: no binding was detected
same,binding to human GAL-7 by MST,human GAL-7 [4],does not bind; also recorded: no binding was detected
same,affinity for galectin-1 relative to the affinity of lactose for galectin-1,"human galectin-1; MST, Red-NHS labeled human GAL-1 (5 nM) with G1N1 or alpha-lactose",approximately 200 fold
same,binding affinity (Kd) for human recombinant galectin-1 by MST,"human galectin-1; Red-NHS labeled G1N1 (2 nM), 20 mM Tris-HCl 150 mM NaCl 0.1% F127",in the nanomolar range
same,"specificity for galectin-1 by ELISA against galectin-2, -7, -13 and -16",[5],specificity of G1N1 for galectin-1 was confirmed
same,binding to human GAL-8 by MST,human GAL-8,does not bind; also recorded: no binding was detected
